Source: ChEMBL document CHEMBL3091431, “Aminopyridyl/Pyrazinyl Spiro[indoline-3,4'-piperidine]-2-ones As Highly Selective and Efficacious c-Met/ALK Inhibitors” (ACS Med Chem Lett, 2013)

Compound: Nc1ncnc2c1ncn2[C@@H]1O[C@H](COP(=O)(O)OP(=O)(O)OP(=O)(O)O)[C@@H](O)[C@H]1O
Assay: Inhibition of human ALK (unknown origin) using poly[Glu:Tyr] as substrate by nanoliter kinase assay

B1: ALK tyrosine kinase receptor (Homo sapiens), Q9UM73 (protein)
chain: MGAIGLLWLLPLLLSTAAVGSGMGTGQRAGSPAAGPPLQPREPLSYSRLQRKSLAVDFVVPSLFRVYARDLLLPPSSSELKAGRPEARGSLALDCAPLLRLLGPAPGVSWTAGSPAPAEARTLSRVLKGGSVRKLRRAKQLVLELGEEAILEGCVGPPGEAAVGLLQFNLSELFSWWIRQGEGRLRIRLMPEKKASEVGREGRLSAAIRASQPRLLFQIFGTGHSSLESPTNMPSPSPDYFTWNLTWIMKDSFPFLSHRSRYGLECSFDFPCELEYSPPLHDLRNQSWSWRRIPSEEASQMDLLDGPGAERSKEMPRGSFLLLNTSADSKHTILSPWMRSSSEHCTLAVSVHRHLQPSGRYIAQLLPHNEAAREILLMPTPGKHGWTVLQGRIGRPDNPFRVALEYISSGNRSLSAVDFFALKNCSEGTSPGSKMALQSSFTCWNGTVLQLGQACDFHQDCAQGEDESQMCRKLPVGFYCNFEDGFCGWTQGTLSPHTPQWQVRTLKDARFQDHQDHALLLSTTDVPASESATVTSATFPAPIKSSPCELRMSWLIRGVLRGNVSLVLVENKTGKEQGRMVWHVAAYEGLSLWQWMVLPLLDVSDRFWLQMVAWWGQGSRAIVAFDNISISLDCYLTISGEDKILQNTAPKSRNLFERNPNKELKPGENSPRQTPIFDPTVHWLFTTCGASGPHGPTQAQCNNAYQNSNLSVEVGSEGPLKGIQIWKVPATDTYSISGYGAAGGKGGKNTMMRSHGVSVLGIFNLEKDDMLYILVGQQGEDACPSTNQLIQKVCIGENNVIEEEIRVNRSVHEWAGGGGGGGGATYVFKMKDGVPVPLIIAAGGGGRAYGAKTDTFHPERLENNSSVLGLNGNSGAAGGGGGWNDNTSLLWAGKSLQEGATGGHSCPQAMKKWGWETRGGFGGGGGGCSSGGGGGGYIGGNAASNNDPEMDGEDGVSFISPLGILYTPALKVMEGHGEVNIKHYLNCSHCEVDECHMDPESHKVICFCDHGTVLAEDGVSCIVSPTPEPHLPLSLILSVVTSALVAALVLAFSGIMIVYRRKHQELQAMQMELQSPEYKLSKLRTSTIMTDYNPNYCFAGKTSSISDLKEVPRKNITLIRGLGHGAFGEVYEGQVSGMPNDPSPLQVAVKTLPEVCSEQDELDFLMEALIISKFNHQNIVRCIGVSLQSLPRFILLELMAGGDLKSFLRETRPRPSQPSSLAMLDLLHVARDIACGCQYLEENHFIHRDIAARNCLLTCPGPGRVAKIGDFGMARDIYRASYYRKGGCAMLPVKWMPPEAFMEGIFTSKTDTWSFGVLLWEIFSLGYMPYPSKSNQEVLEFVTSGGRMDPPKNCPGPVYRIMTQCWQHQPEDRPNFAIILERIEYCTQDPDVINTALPIEYGPLVEEEEKVPVRPKDPEGVPPLLVSQQAKREEERSPAAPPPLPTTSSGKAAKKPTAAEISVRVPRGPAVEGGHVNMAFSQSNPPSELHKVHGSRNKPTSLWNPTYGSWFTEKPTKKNNPIAKKEPHDRGNLGLEGSCTVPPNVATGRLPGASLLLEPSSLTANMKEVPLFRLRHFPCGNVNYGYQQQGLPLEAATAPGAGHYEDTILKSKNSMNQPGP
Q: For B1, which Km is on record?
A: Its Km is 50 µM.
